The term tissue uptake denotes the share of the injected amount in each gram of the tissue. In general, logD refers to lipophilicity at a set pH, counting ionised and neutral species. Higher therefore signals a more lipophilic compound. By amount remaining is commonly meant what is left of the initial amount, in per cent. Lower therefore signals a greater loss.

This is an account of results in publication PMC5481817, “Developing Targeted Hybrid Imaging Probes by Chelator Scaffolding” (Bioconjugate chemistry, 2017).

For data set [1] the following is noted: mouse, in vivo. Here is the method:
(§1) All animal experiments were conducted in accordance with regulations and guidelines of the Czech Animal Protection Act (No. 246/1992), and with the approval of the Czech Ministry of Education, Youth, and Sports (MSMT-22421/2013–12), and the institutional Animal Welfare Committee of the Faculty of Medicine and Dentistry of Palacky University in Olomouc. The studies were performed using female 8–10-week-old athymic BALB/c nude mice (Envigo, Horst, The Netherlands). The number of animals was reduced as much as possible (n = 3 per group and time point for all experiments) and retro-orbital (r.o.) tracer injection as well as small animal imaging was carried out under 2% isoflurane anesthesia (FORANE, Abbott Laboratories, Abbott Park, IL, USA) to minimize animal suffering.
(§2) Tumor xenografts were established near the front shoulder of mice by subcutaneous injection of 5 × 10^6 cells (U-87 MG) or 2 × 10^6 cells (A431-CCK2R) and the same amount of A431-mock cells as a control in 200 μL appropriate medium and Matrigel (1:1). The tumors were allowed to grow until they had reached a volume of 0.2 to 0.5 cm^3. To evaluate ex vivo biodistribution mice were injected with 1–2 MBq (0.05–0.14 nmol) of radiotracer per mouse and mice were sacrificed by cervical dislocation after 30 and 90 min for [^68Ga]Sulfo-Cy7-FSC-RGD and after 1 and 2 h in the case of [^68Ga]Sulfo-Cy7-FSC-MG. Tumors, blood, muscle tissue, and organs were extracted, weighed, and activity uptake of the samples was measured in the gamma counter. Results were expressed as percentage of injected dose per gram tissue (% ID/g). In vivo PET and CT images were acquired with an Albira PET/SPECT/CT small animal imaging system (Bruker Biospin Corporation, Wood-bridge, CT, USA). Xenograft bearing mice were injected with radiolabeled peptides in a dose of ~5 MBq corresponding to 1–2 μg (0.25–0.58 nmol) of peptide per mouse. Anaesthetized animals were positioned prone head first in the Albira system before the start of imaging. Static PET/CT imaging was carried out 30 and 90 min p.i. for [^68Ga]Sulfo-Cy7-FSC-RGD. Animals injected with [^68Ga]Sulfo-Cy7-FSC-MG were imaged 1 and 2 h p.i. A 10 min PET scan (axial FOV 148 mm) was performed, followed by a CT scan (axial FOV 65 mm, 45 kVp, 400 μA, at 400 projections). Scans were reconstructed with the Albira software (Bruker Biospin Corporation, Woodbridge, CT, USA) using the maximum likelihood expectation maximization (MLEM) and filtered backprojection (FBP) algorithms. After reconstruction, acquired data was viewed and analyzed with PMOD software (PMOD Technologies Ltd., Zurich, Switzerland). 3D images were obtained using VolView software (Kitware, Clifton Park, NY, USA). Near-infrared in vivo fluorescence imaging was performed with an In-Vivo MS FX PRO small animal imaging system (Bruker Biospin Corporation, Woodbridge, CT, USA). Sulfo-Cy7-FSC-MG and Sulfo-Cy7-FSC-RGD were injected in a dose of 0.25–0.58 nmol per mouse and after supine head first positioning, imaging was conducted in various time intervals up to 72 h p.i. An appropriate filter set (excitation = 730 nm and emission = 790 nm) was used for acquiring the Sulfo-Cy7-FSC-peptide - fluorescence in vivo. Identical illumination settings (acquisition time = 15 s, filters = 730/790 nm, f-stop = 2.8, field of view = 100 mm, and binning = 4 × 4) were used for acquiring all images, and fluorescence emission was normalized to photons/s/mm^2. Images were acquired and analyzed using Bruker MI SE software (Bruker Biospin Corporation, Woodbridge, CT, USA).

Data set [2] has as its system U-87MG (αvβ3 positive) xenograft bearing mice. The conditions noted are these: mouse, in vivo, 1.5 h. As to the method:
as §1, §2

The format of data set [3] is physicochemical. The conditions noted are these: pH 7.4. Here is the method: (§3) [^68Ga]Sulfo-Cy7-FSC-MG and [^68Ga]Sulfo-Cy7-FSC-RGD (6 MBq) were diluted with phosphate buffered saline to a concentration of 1 μM. Subsequently 50 μL of this solution was added to six Eppendorf tubes containing 450 μL PBS and 500 μL octanol. The mixture was vortexed (1400 rpm) at RT for 15 min using a MS 3 basic vortexer (IKA, Staufen, Germany) followed by centrifugation for 2 min at 4500 rpm. Aliquots of 100 μL of both phases were transferred to plastic vials, measured in the γ-counter and logD values were calculated. For stability testing, radiolabeled tracers were diluted with 450 μL fresh human serum and 450 μL PBS as control to a concentration of 2 μM followed by incubation at 37 °C. After 1, 2, and 4 h (n = 3) 50 μL aliquots were precipitated with acetonitrile (1:1) and centrifuged for 2 min at 14 × 10^3 rpm. The supernatant was analyzed by radio-RP-HPLC to evaluate for decomposition and corresponding chromatograms are shown in Supporting Information. For protein binding measurement aliquots were analyzed by size exclusion chromatography using MicroSpin G-50 Columns (Sephadex G-50, GE Healthcare, Vienna, Austria) in triplicates. […] Column and eluate were measured in the γ-counter and percentages of nonprotein bound radiolabeled peptide (column) and protein bound radiotracer (eluate) were calculated.

Data set [4] relates to M21 (αvβ3 positive) cells. The experiment in a line: M21 internalization assay (radioligand). It counts as cell-based, human. The conditions noted are these: for Cell uptake (internalized): M21 (αvβ3 positive); for membrane bound amount of activity: M21 cells. Here is the method: (§4) Integrin αvβ3 positive (M21) and αvβ3 negative (M21-L) cells were diluted with incubation medium, i.e., corresponding growth medium containing 1% glutamine (m/v), 1% BSA (m/v), CaCl2 (1 mM), MgCl2 (1 mM), and MnCl2 (10 mM) to a concentration of 2.0 × 10^6 cells/ml. Aliquots of one milliliter were transferred to Eppendorf tubes and six technical replicates for each cell line were incubated for 1 h at 37 °C. Subsequently 50 μL of the radiolabeled ligand (1.2 nM [^68Ga]Sulfo-Cy7-FSC-RGD in PBS/0.5% BSA, approximately 2 × 10^4 cpm) were added and incubated at 37 °C for further 60 and 120 min, respectively. After incubation the tubes were centrifuged (2 min, 5000 rpm; Eppendorf Centrifuge 5424, Hamburg, Germany) and the supernatant was removed and collected. Hereafter the cells were washed twice with 1 mL ice-cold washing buffer (10 mM TRIS-buffered saline, pH 7.3) and the fractions were combined with the supernatant (wash fraction). To determine the membrane bound tracer amount cells were washed two times with 1 mL acetate buffer (20 mM, pH 4.5, 10 min at 37 °C) and the supernatant was collected. The residual cells were lysed by adding 1 mL of 2 M NaOH twice and collected in plastic vials (internalized fraction). The activity of all collected vials was measured in the γ-counter and compared to standard solution (50 μL radiotracer).

The nature of another data set: physchem. The conditions noted are these: buffer or solvent. The data set is classed as physicochemical. As to the method:
[^68Ga]Sulfo-Cy7-FSC-MG and [^68Ga]Sulfo-Cy7-FSC-RGD (6 MBq) were diluted with phosphate buffered saline to a concentration of 1 μM. Subsequently 50 μL of this solution was added to six Eppendorf tubes containing 450 μL PBS and 500 μL octanol. The mixture was vortexed (1400 rpm) at RT for 15 min using a MS 3 basic vortexer (IKA, Staufen, Germany) followed by centrifugation for 2 min at 4500 rpm. Aliquots of 100 μL of both phases were transferred to plastic vials, measured in the γ-counter and logD values were calculated. For stability testing, radiolabeled tracers were diluted with 450 μL fresh human serum and 450 μL PBS as control to a concentration of 2 μM followed by incubation at 37 °C. After 1, 2, and 4 h (n = 3) 50 μL aliquots were precipitated with acetonitrile (1:1) and centrifuged for 2 min at 14 × 10^3 rpm. The supernatant was analyzed by radio-RP-HPLC to evaluate for decomposition and corresponding chromatograms are shown in Supporting Information. For protein binding measurement aliquots were analyzed by size exclusion chromatography using MicroSpin G-50 Columns (Sephadex G-50, GE Healthcare, Vienna, Austria) in triplicates. First, the columns were centrifuged at 750 rcf for 1 min to remove the storage buffer. After adding 25 μL of incubation solution columns were centrifuged again for 2 min with 2000 rcf. Column and eluate were measured in the γ-counter and percentages of nonprotein bound radiolabeled peptide (column) and protein bound radiotracer (eluate) were calculated.

For data set [5], the system named is mice bearing U-87MG tumor xenografts. The experiment in a line: Static micro-PET/CT imaging, U-87MG xenografts. The data set is classed as in vivo, mouse. Particulars: static PET, 30 and 90 min p.i. As to the method:
All animal experiments were conducted in accordance with regulations and guidelines of the Czech Animal Protection Act (No. 246/1992), and with the approval of the Czech Ministry of Education, Youth, and Sports (MSMT-22421/2013–12), and the institutional Animal Welfare Committee of the Faculty of Medicine and Dentistry of Palacky University in Olomouc. The studies were performed using female 8–10-week-old athymic BALB/c nude mice (Envigo, Horst, The Netherlands). […]
Tumor xenografts were established near the front shoulder of mice by subcutaneous injection of 5 × 10^6 cells (U-87 MG) or 2 × 10^6 cells (A431-CCK2R) and the same amount of A431-mock cells as a control in 200 μL appropriate medium and Matrigel (1:1). […] Tumors, blood, muscle tissue, and organs were extracted, weighed, and activity uptake of the samples was measured in the gamma counter. Results were expressed as percentage of injected dose per gram tissue (% ID/g). […] After reconstruction, acquired data was viewed and analyzed with PMOD software (PMOD Technologies Ltd., Zurich, Switzerland). […] Near-infrared in vivo fluorescence imaging was performed with an In-Vivo MS FX PRO small animal imaging system (Bruker Biospin Corporation, Woodbridge, CT, USA). […] An appropriate filter set (excitation = 730 nm and emission = 790 nm) was used for acquiring the Sulfo-Cy7-FSC-peptide - fluorescence in vivo. […]

The nature of the next data set: in vitro. The data set is classed as in vitro ADME, human. Here is the method:
as §3

Data set [6] relates to M21-L (αvβ3 negative) cells. The experiment in a line: M21-L internalization assay (radioligand). It counts as cell-based, human. Particulars: for Cell uptake (internalized): M21-L (αvβ3 negative); for unspecific membrane bound activity: M21-L cells. Here is the method: as §4
[7] abbreviates: 87 mg, accumulation in tumor tissue.

Read-outs that look alike come from different tables or passages of the source.

Take `C/C1=C/C(=O)N(O)CCC[C@H](NC(=O)CCN2C(=O)CC(SCCOCCOCCOCCOCCC(=O)NCCCC[C@@H]3NC(=O)[C@@H](Cc4ccccc4)NC(=O)[C@H](CC(=O)O)NC(=O)CNC(=O)[C@H](CCCNC(=N)N)NC3=O)C2=O)C(=O)OCC/C(C)=C\C(=O)N(O)CCC[C@H](NC(=O)CCN2C(=O)CC(SCCOCCOCCOCCOCCC(=O)NCCCC[C@@H]3NC(=O)[C@@H](Cc4ccccc4)NC(=O)[C@H](CC(=O)O)NC(=O)CNC(=O)[C@H](CCCNC(=N)N)NC3=O)C2=O)C(=O)OCC/C(C)=C\C(=O)N(O)CCC[C@H](NC(=O)CCCCC[N+]2=C(C=CC3=CC(=CC=C4N(C)c5ccc(S(=O)(=O)[O-])cc5C4(C)C)CCC3)C(C)(C)c3cc(S(=O)(=O)O)ccc32)C(=O)OCC1` (stereo partly drawn) [[^68Ga]Sulfo-Cy7-FSC-RGD, metal not drawn]: in data set [1] (setting [7]), the tissue uptake at 0.5 h is 10.1 ± 0.8 %ID/g and the tissue uptake at 1.5 h came out at 7.5 ± 0.8 %ID/g. Moreover, in data set [1] (blood), the tissue uptake at 0.5 h is 4 ± 0.4 %ID/g and the tissue uptake at 1.5 h was determined as 1.3 ± 0.2 %ID/g. Further, the tissue uptake at 1.5 h in data set [1] (kidney retention) is 54.8 ± 1.1 %ID/g. The compound also showed a kidney retention in data set [2] of 57.3 ± 4.6 % ID/g. Also, the logD in data set [3] is -2.3 ± 0.16. Further, in data set [4] (1 h), the “Cell uptake (internalized)” value came to 2.45 ± 0.36% and the “membrane bound amount of activity” value is listed as 1.09 ± 0.23%. In data set [4] (2 h), the “Cell uptake (internalized)” value came out at 4.41 ± 1.17% and the “membrane bound amount of activity” value was 1.79 ± 0.59%. Further, in “physchem”, the share remaining at 1 h, 2 μM worked out at 95.7 ± 0.1%; the amount remaining at 2 h, 2 μM is 94.7 ± 0.6%; the share remaining at 4 h, 2 μM was found to be 94.4 ± 0.3%. For the same compound, the PET tumor visualization entry in data set [5] is listed as “tumor was visualized clearly”. Also, the “Binding to serum proteins” value in “in vitro” is listed as “approximately 20%”. In data set [6] (1 h), the “Cell uptake (internalized)” value turned out to be 0.43 ± 0.25% and the “unspecific membrane bound activity” value is on record as 0.29 ± 0.12%. Besides, in data set [6] (2 h), the “Cell uptake (internalized)” value is reported as 0.71 ± 0.66% and the “unspecific membrane bound activity” value was 0.80 ± 0.62%. Also, in data set [6] (M21-L vs M21, 1 and 2 h), the “cell uptake on αvβ3 negative cells relative to αvβ3 positive cells (reduced to)” value was “approximately 1/6”.
